We go through 22 sequences from the DeepSol protein solubility set.

A short description of the series: soluble on expression in E. coli; label from the status in PepcDB or PDB records.
Regarding “MGSDKIHHHHHHMFTDYVLLLFSTTPRRAKGLFNVLRGRRTVSTLFAGLTAGYLDLLDSCHEVPLEDFMAATAALTENGQLTSTATGCWQLTQAGEHRQAKLRQTLYMPQNFEVFQTTDVRRFRIVSQLALQVVSELVHHDRHYYPVTTDPGIQAQVKQWLRQQSKVELGEQIHAALTAFLTSLADPELPTVFVQGITGYQEPGLTNEQLAAQLGRQPWEASLMHTDVICQWIAWIQRHPRDPFSQLLSVLTQASAISQSAEQTYQAFLKTQQLAAIAQTRHLKMSTVREHLLEVAIWSPDFPFEMVLNHEITQQLATIFAAQPDIANWSFQEAQAALPTLDFFEFRLFQIMRCQHVRR”, the “soluble on expression in E. coli” value is recorded as “not soluble”.

Turning to “RRNLGGRLYLVTYGKAAALHLDPVEKKPLYHFHPGEGILSVGTVGCNLFCAFCQNWQISQFREFRVSPEGRLDRPIGEDWPPKRLVAEAEALGVRLLAYTYNEPAVWIEYAHDTARLAKARGMKNVFVTSGFETKEAWDYIRPHLDAANVDLKGFTEKFYREVCGARLKPVLESLGHLVASGVWVEVTTLLLEGYNDSDEEVRAMARFLKGLSPDIPWHLTAAHPDYRMLDLRSTRHATLVRAHAIAK”, the “soluble on expression in E. coli” value is “not soluble”.

As to “MIRMSVLASGSTGNATYVESDKGSILVDAGLTGKKMEELFGQIDKQIQNLNGILVTHEHSDHIKGLGVLARKYKLPIYANEKTWTAIEKKDSKIPMDQKFIFNPYETKSLAGFDIESFNVSHDAIDPQFYIFHNNYKKFTILTDTGYVSDRMKGMIQGSDAFVFESNHDVDMLRMCGYPWKTKQRILSDMGHVSNEDAGRAMTDVITGSTKRIYLSHLSQDNLEHHHHHH”, the “soluble on expression in E. coli” value is “not soluble”. In the case of “MLIIETLPLLRQQIRRLRMEGKRVALVPTMGNLHDGHMKLVDEAKARADVVVVSIFVNPMQFDRPEDLARYPRTLQEDCEKLNKRKVDLVFAPSVKEIYPNGTETHTYVDVPGLSTMLEGASRPGHFRGVSTIVSKLFNLVQPDIACFGEKDFQQLALIRKMVADMGFDIEIVGVPIMRAKDGLALSSRNGYLTAEQRKIAPGLYKVLSSIADKLQAGERDLDEIITIAGQELNEKGFRADDIQIRDADTLLEVSETSKRAVILVAAWLGDARLIDNKMVELA”, the “soluble on expression in E. coli” value is reported as “soluble”. The result for “MDFLDFEKVFSFYSKATKKGFSPFFVPALEKAEEPAGNFFLDRKGNLFSIREDFTKTVLNHRKRYSPDSQIKVWYADFVYRYSGSDLVAEYQLGLEKVPRNSLDDSLEVLEIIVESASEFFEGPVIVEIGHTGVYEDLLKEIPKDLHEKVLNLIDTKNLAEIEFLSHMKKIDLSRVEKIIEDSIYRRSPEHLKTMDLPLSVREDLLSASSFLQEKFPTVSVEIDLTLARTIEEYCGLIFTIYDTSSSRLVAAGGEYTVNGEKGVGGSIFLEGKTC” reads “soluble”; that for “MSLDNESLLAILNNWSATNYAKGNYILREISSKFLAKISIDSNDYLLDAGCGDGSFTQMLANLVPDGYVLGLDRSKTMIDYANKHCRSINVRFDIGDIQEPIIYGPFDNILSFWCLHWTDLEKSLSNLYHVLKPGGKICAIFSSGKQSTLFEVLNSLQFQNLYPDVAKNVVQSKMMRENYSVQCRRALDNLPFKSISFVVEHCQVELPDLGLFENFIHGAPLFKDLPGKMYQDIVNGMVQFFDEYCKKKYGGKWVYETTPYFLTITREGHHHHHH”, “soluble”; that for “SLTRLEALKNIPRPAEECVEKTLNGEVPVDLFIARGHPNVRASNKRTLEVTKDVYLTRRGDCIIACCAEKAAGELSATVLEALMRSGLVVLIIDAGVVWDYVIGITPRSKPASKWRLVARKSNYVDDSTIAILADKAAYDLDRTLIRELKRGVPVRIIVGVCPGDSI”, “not soluble”. Turning to “MSLTSQPREQFLLISALGPNPMELTTLLCRACVESRCAVVSSRLTRHGEFSALVLQISGSWDALARLEGSLPALTKRGDITLSMTRSNAHVTRAQALPYVAYVSAVYRPDILNELCQFFIDHNIELENLTCDTYQAPHTNTTMLNATITVTLPAGTQISWLRDQFLDFADALNLDALIEPWREGGSHHHHHH”, the “soluble on expression in E. coli” value is listed as “soluble”.

Turning to “MSLGEFVFKGLLQEKGWIENAVVKTNDFGVITSIKSDPERKDGCDYAIPGFQNAHSHAFQYAMAGLAELHSTSKTKNDFWSWRKIMYDLALNITPDQMEDIATMLYKEMLRHGYTHVAEFHYLHHDLSGEKYNNCSEMGERIIAAAKRAGIKLTLVPIFYQNGGFGRKAENEQRRFISSSFNDYKNLVEASISSSKNYEHSSVAYGIHSMRAVSAENIIKLSEQKENGAPFHIHVSEQLKEIEDSVAFLGLRPVDWLSENIDLNPDYHLVHATHLTQNEIESIAKSQANVVLCPSTEGNLGDGIFPLNEFLKHGGKWSIGTDSHVGLNPFEELRILDYGQRLISHNRNTFGNNISGDNGNIAISSALVNGRKAMGIEQTHYFEVGKSFDALIISDQHPLIQTVSLKNLTNTLVYSSDNSMYKGTIVNGDWKIKDGQHADDNIHADFIQTLNALKVREGHHHHHH”, the “soluble on expression in E. coli” value is given as “soluble”.

Regarding “SNEVKESLRSIEQKYKLFQQQQFTFIAALEHCRENAHDKIRPISSIEQVQSYMEHYCNNSTHRRILIMFMDICSELSKLCQHFEALHSGTPVTNSLLEKCKTLVSQSNDLSSLRAKYPHEVVNHLSCDEARNHYGGVVSLIPIVLDFMKEWIAHSEKLPRKVLQHGTT”, the “soluble on expression in E. coli” value was “soluble”.

On to “MAHHHHHHMSSSDLIKEDDYVFISGRGLNKIVQIKKDVTVRLGRSGAALATTLIGIRYGGVCHLDHARKKFVESDEYPDLDITEVGDGEEVKDNRDLVDDNTNQQLSNDEVAAIRRDKGLDELLQALVEKSASYRTKTNFAQEKYLKKKQKKYGTLFKVERVTVDNLAELHVPTINPSDNTSEDARCLRLRADTVALILHHSDVHHNSRVILYEKTNGVLPASLLTRMSDEGRIFQILDKNAQPSPTTAVKVLKLPLVKERWKAVPRNRGFLEGLEEPDKDSARDTAEAAEKNAAGAAAGKGLQRQDICASSTQWVKGLEARQLLLESSADSLVICDDEAPQRAVADLLPFLAFGGHIVVYSPFLEDLTGIFLALRDDCVNLQISETWYRHHQVLPKRTHPTVNMSTAAGYLLTAIKVCRNPAAPRLTAAVTAPALSATTHAGHKRSATEELNGMASKKSATREASDEGNAN”, for which the “soluble on expression in E. coli” value is “not soluble”. In the case of “MSDQPRPTVIITGASSGVGLYATKALANRGWHVIMACRNLEKAEQAAKNLQIPPEAYTILHLDLSSLASVRGFVESFRALNRPLRALVCNAAVYYPLLKEPIYSVDGYEITVATNHLGHFLLINLLLEDLKNSPESDKRLVILGTVTANRKELGGKIPIPAPPDLGNLEGFEKGFKKPIAMINGKPFKSGKAYKDSKLCNMLTARELHRRFHESTGIVFNSLYPGCVADTPLFRHHFPLFQKLFPLFQKKITGGYVSQELAGERVAMVVADPEFRQSGVHWSWGLEHHHHHH”, the “soluble on expression in E. coli” value is listed as “soluble”. For “PSVQVTDGQINGESVRFIAVVPDANNHYPRAAGGEVGLLEGWTLAKVVNETIAADADRPVKRPIVAVIDVPSQAYGRREEAFGIHQALAGAAGAYAKARLAGHPVIGLIVGKAMSGAFLAHGYQANRLIAFNDSGVLVHAMGKASAARITLRTVEALEKLAATIPPMAY”, the “soluble on expression in E. coli” value was “not soluble”.

Regarding “MSLKITILAVGKLKEKYWKQAIAEYEKRLGPYTKIDIIEVPDEKAPENMSDKEIEQVKEKEGQRILAKIKPQSTVITLEIQGKMLSSEGLAQELNQRMTQGQSDFVFVIGGSNGLHKDVLQRSNYALSFSKMTFPHQMMRVVLIEQVYRAFKIMRGEAYHK”, the “soluble on expression in E. coli” value is “soluble”.

For the sequence “GSMLHGLKQRLEALHHPGELEGSPQNLHQLLGVSIEQSVPQAQTMLVERHLASLTGDEARLLAALSDGSAFALLTLYSGSRFSRGEVLYRYSNAGRAAGIQCNDFIALYLNHLFAQGLVIASDFTESLRTDYELCEGDSDFRKAQAELQIHLPKLSIRRETLRISPLGRQLWTLMTTPADIEEGH”, the “soluble on expression in E. coli” value is given as “soluble”. Consider “MEDEVFVFTPKGDLFKLAKGATVLDFAFHIHSKLGCKCIGAKVNGKNVQLKQKLNSGDQVEIMTSNTQTPKQDWLEHHHHHH”, for which the “soluble on expression in E. coli” value is “not soluble”.

For the sequence “MSLSDPIKITFSVEGLSHPFLVKQKQLAEETGKRLGAQVNVISANDDVNQQFNDIQTAIAQGTDALMMMPATTQGLDAVLKQAEAAQIPYFFSQKGMLGVEPASQVLAPYSNEGQQLGEWVVEHYKGQEDVKVAIISGIPGDQSSDARVNSFLLPLLRSCNFNVVANQPGNYRRGDSEKAAQNMLAANPDIDLLFGANDEAALGGIAALKSSGRQGVDVVGLDGQTDMFAAIQSGQALATVIHKPTAGIVVEEAVDYLRGKPVPEYRVLDEDLVTKETIETGAQPAEGHHHHHH”, the “soluble on expression in E. coli” value is on record as “soluble”. For the sequence “MAKNKWQPTKHLGIYEYMTKKGKRYGIRVRYKQGNDYPEINKSGFETIAAAKVYKNNIENLKANKKEYVFTNEKLTLNTWFASYMEMFKKKNKSKDTIANKYSIYNNHLEIPFGNYYLTDISLDIYEDFLREKIKNGYANNSVKAMHKLMKSILNAAVRYEKLEKNRLQFAEIEQLEENEVIELKVLETDEFNVFISACRAFFTKYDFTMIYLAVWGMRRGEVMGVKLKNLTFDDAKQQVRITLDSTRTLRTPEGKGTKTPAGRRILLIDGEGYRLLKYSVEKAVSIAKDHGSVLHQDDFIFRNPTSNRPWAVTRMNDLLRKLEKEYDIKVYPHLLRHNFNTQALLAGANSNDLRKFIGHKNSSMTDHYSHATDEGREKLMNTMKDRLSGI”, the “soluble on expression in E. coli” value is “not soluble”. For the sequence “MSLDRRAQQRLALGEFLRARRRAAVRAELGLPDMPRSRTSGLRREEVAVQAGVSVTWYTWLEQGRDINPSRQVLDAIARALRLSPSEHDYVLALGGYTVDHAVTAGPPPPQIQRFLDALGGHPAFAITSDWGIAAWNTAYAALYPNIERVPPPDRNLLWLVFMDPAIRELLPDWDADSRRFLAEFRADAGPMVGEPSYTALVSRLSSESPHFATAWRAADIERFTSRERLFRHPVVGELRLEHHQVAPVDVPDIQIVAYLPEPGSVAAERLRRLVGQAGDTAREGHHHHHH”, the “soluble on expression in E. coli” value is listed as “soluble”.

As for “MKIAIEGCMHGDLDNVYKTIQHYEQIHNTKVDLLLCCGDFQAVRNEKDMDSLNVPRKYREMKSFWKYYSGQEVAPIPTIFIGGNHEASNYLWELYYGGWAATNIYFLGFAGVVKFGNVRIGGLSGIYNERHYRSGHFERPPYNESTIRSVYHVRDYDVQKLMQLEEPLDIFLSHDWPVGITDYGDSESLMRQKPYFRQEIEEKTLGSKPAALLLEKLKPQYWFSAHLHCKFAAAVQHGNDGSVTKFLALDKCLPGKKFLQIIEIESEPGPFEVLYDEEWLAITRKFNSIFPLTRRYTNVRYTIPNKLPTKKWERTDIPASLAPSDTYSVKLFIYSFYLPIVMKLHQAPMTEMFSAVSRIKHVLLCIADLPTYDSEEIPIDDIDEIEEMEEAKADDHTRDDA”, the “soluble on expression in E. coli” value is on record as “soluble”. With “MLLNLDVRMQLKELAQKEFKEPVSIKLFSQAIGCESCQTAEELLKETVEVIGEAVGQDKIKLDIYSPFTHKEETEKYGVDRVPTIVIEGDKDYGIRYIGLPAGLEFTTLINGIFHVSQRKPQLSEKTLELLQVVDIPIEIWVFVTTSCGYCPSAAVMAWDFALANDYITSKVIDASENQDLAEQFQVVGVPKIVINKGVAEFVGAQPENAFLGYIMAVYEKLKREKEQA”, the “soluble on expression in E. coli” value is “soluble”. The result for “MEEIWLSCHALVFHTTPTQRLCVGWGELAVGRFVKMAAAPAPEMTPRLDVSKNATDPDSLTDHGFQYSRHRPVITDHKRFDRLVGFSIKQSNVELAAEAIKQAATVWCLTEKKSDKRDEDSVKFLATYLYKESLYWGKIDPRRALQRATAESWLGSQSFAPTSARTYKAVLHTAGRVLYPAEFPPANRYSNPRAKPVDPASVELIDELYGVAATLPAVHRLRLQLILDLTTQSGLRSAEVLDLRGSDVTARILDTGERIALVRVHR” reads “not soluble”.
